The experiment deals with AAV-DJ capsid proteins VP2 and VP3 (capsid shell) (adeno-associated virus, AAV-DJ (engineered capsid)). In words: co-sedimentation.

The results in this text go back to PMC10661864.

Take “AAV-DJ capsid protein VP1 (wild type) (natural protein)”: the VP1 copies per 60-mer capsid (VP1 copies per 60-mer capsid) came to 3.
